Assay results: article PMC5501724, “Structural Basis for Specific Interaction of TGFβ Signaling Regulators SARA/Endofin with HD-PTP” (Structure(London, England:1993), 2017)

B1: endofin 22-mer peptide (first 22 residues of endofin) [human] / His6-HD-PTP_(Bro1-CC) (1-714), bacterially expressed [human] (parent complex)
chain 1: MDSYFKAAVSDLDKLLDDFEQN
chain 2: MEAVPRMPMIWLDLKEAGDFHFQPAVKKFVLKNYGENPEAYNEELKKLELLRQNAVRVPRDFEGCSVLRKYLGQLHYLQSRVPMGSGQEAAVPVTWTEIFSGKSVAHEDIKYEQACILYNLGALHSMLGAMDKRVSEEGMKVSCTHFQCAAGAFAYLREHFPQAYSVDMSRQILTLNVNLMLGQAQECLLEKSMLDNRKSFLVARISAQVVDYYKEACRALENPDTASLLGRIQKDWKKLVQMKIYYFAAVAHLHMGKQAEEQQKFGERVAYFQSALDKLNEAIKLAKGQPDTVQDALRFTMDVIGGKYNSAKKDNDFIYHEAVPALDTLQPVKGAPLVKPLPVNPTDPAVTGPDIFAKLVPMAAHEASSLYSEEKAKLLREMMAKIEDKNEVLDQFMDSMQLDPETVDNLDAYSHIPPQLMEKCAALSVRPDTVRNLVQSMQVLSGVFTDVEASLKDIRDLLEEDELLEQKFQEAVGQAGAISITSKAELAEVRREWAKYMEVHEKASFTNSELHRAMNLHVGNLRLLSGPLDQVRAALPTPALSPEDKAVLQNLKRILAKVQEMRDQRVSLEQQLRELIQKDDITASLVTTDHSEMKKLFEEQLKKYDQLKVYLEQNLAAQDRVLCALTEANVQYAAVRRVLSDLDQKWNSTLQTLVASYEAYEDLMKKSQEGRDFYADLESKVAALLERTQSTCQAREAARQQLLDRELKK
B2: HA-HD-PTP_(Bro1-CC) wild-type, expressed in cells [human] / endogenous endofin [human (endogenous in HEK293)] (parent complex)
chain 1: B1 chain 2
chain 2: MDSYFKAAVSDLDKLLDDFEQNPDEQDYLQDVQNAYDSNHCSVSSELASSQRTSLLPKDQECVNSCASSETSYGTNESSLNEKTLKGLTSIQNEKNVTGLDLLSSVDGGTSDEIQPLYMGRCSKPICDLISDMGNLVHATNSEEDIKKLLPDDFKSNADSLIGLDLSSVSDTPCVSSTDHDSDTVREQQNDISSELQNREIGGIKELGIKVDTTLSDSYNYSGTENLKDKKIFNQLESIVDFNMSSALTRQSSKMFHAKDKLQHKSQPCGLLKDVGLVKEEVDVAVITAAECLKEEGKTSALTCSLPKNEDLCLNDSNSRDENFKLPDFSFQEDKTVIKQSAQEDSKSLDLKDNDVIQDSSSALHVSSKDVPSSLSCLPASGSMCGSLIESKARGDFLPQHEHKDNIQDAVTIHEEIQNSVVLGGEPFKENDLLKQEKCKSILLQSLIEGMEDRKIDPDQTVIRAESLDGGDTSSTVVESQEGLSGTHVPESSDCCEGFINTFSSNDMDGQDLDYFNIDEGAKSGPLISDAELDAFLTEQYLQTTNIKSFEENVNDSKSQMNQIDMKGLDDGNINNIYFNAEAGAIGESHGINIICEIVDKQNTIENGLSLGEKSTIPVQQGLPTSKSEITNQLSVSDINSQSVGGARPKQLFSLPSRTRSSKDLNKPDVPDTIESEPSTADTVVPITCAIDSTADPQVSFNSNYIDIESNSEGGSSFVTANEDSVPENTCKEGLVLGQKQPTWVPDSEAPNCMNCQVKFTFTKRRHHCRACGKVFCGVCCNRKCKLQYLEKEARVCVVCYETISKAQAFERMMSPTGSNLKSNHSDECTTVQPPQENQTSSIPSPATLPVSALKQPGVEGLCSKEQKRVWFADGILPNGEVADTTKLSSGSKRCSEDFSPLSPDVPMTVNTVDHSHSTTVEKPNNETGDITRNEIIQSPISQVPSVEKLSMNTGNEGLPTSGSFTLDDDVFAETEEPSSPTGVLVNSNLPIASISDYRLLCDINKYVCNKISLLPNDEDSLPPLLVASGEKGSVPVVEEHPSHEQIILLLEGESFHPVTFVLNANLLVNVKFIFYSSDKYWYFSTNGLHGLGQAEIIILLLCLPNEDTIPKDIFRLFITIYKDALKGKYIENLDNITFTESFLSSKDHGGFLFITPTFQKLDDLSLPSNPFLCGILIQKLEIPWAKVFPMRLMLRLGAEYKAYPAPLTSIRGRKPLFGEIGHTIMNLLVDLRNYQYTLHNIDQLLIHMEMGKSCIKIPRKKYSDVMKVLNSSNEHVISIGASFSTEADSHLVCIQNDGIYETQANSATGHPRKVTGASFVVFNGALKTSSGFLAKSSIVEDGLMVQITPETMNGLRLALREQKDFKITCGKVDAVDLREYVDICWVDAEEKGNKGVISSVDGISLQGFPSEKIKLEADFETDEKIVKCTEVFYFLKDQDLSILSTSYQFAKEIAMACSAALCPHLKTLKSNGMNKIGLRVSIDTDMVEFQAGSEGQLLPQHYLNDLDSALIPVIHGGTSNSSLPLEIELVFFIIEHLF
B3: endofin 22-mer peptide (first 22 residues of endofin) [human] / His6-HD-PTP_(Bro1) (1-361) [human] (parent complex)
chain 1: MDSYFKAAVSDLDKLLDDFEQN
chain 2: MEAVPRMPMIWLDLKEAGDFHFQPAVKKFVLKNYGENPEAYNEELKKLELLRQNAVRVPRDFEGCSVLRKYLGQLHYLQSRVPMGSGQEAAVPVTWTEIFSGKSVAHEDIKYEQACILYNLGALHSMLGAMDKRVSEEGMKVSCTHFQCAAGAFAYLREHFPQAYSVDMSRQILTLNVNLMLGQAQECLLEKSMLDNRKSFLVARISAQVVDYYKEACRALENPDTASLLGRIQKDWKKLVQMKIYYFAAVAHLHMGKQAEEQQKFGERVAYFQSALDKLNEAIKLAKGQPDTVQDALRFTMDVIGGKYNSAKKDNDFIYHEAVPALDTLQPVKGAPLVKPLPVNPTDPAVTGPDIFAKLV
B4: endofin_(1–84)-strep, in vitro translated [modified: 35S-methionine; 35S-methionine] [human] / His6-HD-PTP_(Bro1-CC) (1-714), bacterially expressed [human] (parent complex)
chain 1: MDSYFKAAVSDLDKLLDDFEQNPDEQDYLQDVQNAYDSNHCSVSSELASSQRTSLLPKDQECVNSCASSETSYGTNESSLNEKT
chain 2: B1 chain 2

Variants of: B1
Assay: biosensor binding (sensogram); parent: 80; read off a plot

Variant	response [RU]
chain 1 L15P	~0

Variants of: B2
Assay: anti-HA immunoprecipitation from cells, anti-endofin immunoblot, quantitation; four independent experiments (mean ± SD); parent: 100; read off a plot

Variant	percent of parent
chain 1 T145K	~13 % of WT
chain 1 H125A	~23 % of WT
chain 1 L202D	~9.5 % of WT
chain 1 R198M	~59 % of WT

Next, values leading:

percent of parent	Variant
~68 % of WT	chain 1 R69L
~30 % of WT	chain 1 F62E

Variants of: B3
Assay: biosensor binding (sensogram); parent: 110; read off a plot

Variant	response [RU]
chain 1 L15P	~0

Variants of: B4
Assay: co-immunoprecipitation with anti-His6 antibody, quantitation of blots; three independent experiments (mean ± SD); parent: 100; read off a plot

Variant	percent of parent
chain 1 L15P	~6 % binding (rel. to WT)
